Measured values as given in the supplement of paper PMC9112550, “Optimization of the antimicrobial peptide Bac7 by deep mutational scanning” (BMC Biology, 2022).

Tested on: Escherichia coli TOP10
Assay: shrunken log2 fold change of peptide-encoding DNA abundance (4.5 h post-induction vs induction); higher = less antimicrobial activity (less host growth inhibition)
Conditions: time post-induction: 4.5 h; library: site-saturation at positions 5, 18, 19, 20
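Note: peptides expressed intracellularly from a pBAD plasmid library in pooled LB shake-flask culture, induced with 0.3% L-arabinose, DNA abundance read by NGS, three biological replicates, DESeq2 with apeglm shrinkage.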

| Sequence | shrunken log2 fold change |
| --- | --- |
| RRIRCRPPRLPRPRPRPSTHPRP | -0.454 |
| RRIRCRPPRLPRPRPRPSCKPRP | -0.685 |
| RRIRIRPPRLPRPRPRPNYIPRP | -1.29 |
| RRIRGRPPRLPRPRPRPAPEPRP | 1.34 |
| RRIRHRPPRLPRPRPRPPFGPRP | -0.0898 |
| RRIRHRPPRLPRPRPRPELQPRP | 0.07 |
| RRIRQRPPRLPRPRPRPRHEPRP | -0.131 |
| RRIRGRPPRLPRPRPRPEVFPRP | 1.38 |
| RRIRFRPPRLPRPRPRPREHPRP | 0.0409 |
| RRIRWRPPRLPRPRPRPNWVPRP | 0.0816 |
| RRIRRRPPRLPRPRPRPDKYPRP | -0.259 |
| RRIRIRPPRLPRPRPRPCFYPRP | -0.694 |
| RRIRKRPPRLPRPRPRPFCGPRP | 0.345 |
| RRIRPRPPRLPRPRPRPVDMPRP | 0.0425 |
| RRIRLRPPRLPRPRPRPWWNPRP | -0.426 |
| RRIRCRPPRLPRPRPRPSNCPRP | -0.0679 |
| RRIRYRPPRLPRPRPRPQMPPRP | -0.205 |
| RRIRKRPPRLPRPRPRPWWFPRP | -0.0467 |
| RRIRRRPPRLPRPRPRPWEKPRP | 0.0936 |
| RRIRARPPRLPRPRPRPQNRPRP | 0.495 |
| RRIRERPPRLPRPRPRPYMTPRP | -0.124 |
| RRIRCRPPRLPRPRPRPRVQPRP | 0.241 |
| RRIRTRPPRLPRPRPRPMDHPRP | -0.31 |
| RRIRFRPPRLPRPRPRPWEKPRP | -0.0348 |
| RRIRKRPPRLPRPRPRPAMVPRP | 0.87 |

| Sequence | shrunken log2 fold change |
| --- | --- |
| RRIRERPPRLPRPRPRPLNTPRP | -1.11 |
| RRIRMRPPRLPRPRPRPVHAPRP | 1.18 |
| RRIRRRPPRLPRPRPRPFNKPRP | -0.712 |
| RRIRLRPPRLPRPRPRPMIMPRP | -0.159 |
| RRIRVRPPRLPRPRPRPLFPPRP | 0.0958 |
| RRIRERPPRLPRPRPRPKEDPRP | 0.0193 |
| RRIRERPPRLPRPRPRPVHVPRP | -0.389 |
| RRIRGRPPRLPRPRPRPQDKPRP | 0.0315 |
| RRIRVRPPRLPRPRPRPPGMPRP | 0.172 |
| RRIRQRPPRLPRPRPRPHRQPRP | 0.00471 |
| RRIRERPPRLPRPRPRPFYCPRP | 0.0826 |
| RRIRHRPPRLPRPRPRPGNWPRP | -0.0354 |
| RRIRFRPPRLPRPRPRPMLCPRP | -0.103 |
| RRIRMRPPRLPRPRPRPLGKPRP | 0.0958 |
| RRIRWRPPRLPRPRPRPDSEPRP | 1.48 |
| RRIRSRPPRLPRPRPRPFAIPRP | -0.638 |
| RRIRSRPPRLPRPRPRPIPDPRP | -0.0495 |
| RRIRIRPPRLPRPRPRPQFSPRP | -0.371 |
| RRIRFRPPRLPRPRPRPMRHPRP | 0.0162 |
| RRIRMRPPRLPRPRPRPGCHPRP | 0.0532 |
| RRIRERPPRLPRPRPRPIRDPRP | 0.0201 |
| RRIRCRPPRLPRPRPRPHHWPRP | -0.0852 |
| RRIRKRPPRLPRPRPRPSVWPRP | 0.645 |
| RRIRSRPPRLPRPRPRPVTVPRP | -0.057 |
| RRIRNRPPRLPRPRPRPVFHPRP | -0.256 |

| Sequence | shrunken log2 fold change |
| --- | --- |
| RRIRARPPRLPRPRPRPWAPPRP | 0.0486 |
| RRIRARPPRLPRPRPRPQDQPRP | 0.302 |
| RRIRNRPPRLPRPRPRPQFLPRP | 0.106 |
| RRIRLRPPRLPRPRPRPGYMPRP | -0.459 |
| RRIRIRPPRLPRPRPRPMESPRP | -0.00136 |
| RRIRFRPPRLPRPRPRPCYCPRP | -0.064 |
| RRIRERPPRLPRPRPRPNSSPRP | -0.494 |
| RRIRNRPPRLPRPRPRPMRKPRP | 0.481 |
| RRIRTRPPRLPRPRPRPIETPRP | 0.108 |
| RRIRERPPRLPRPRPRPQQNPRP | -0.122 |
| RRIRMRPPRLPRPRPRPIMTPRP | -0.104 |
| RRIRSRPPRLPRPRPRPHTAPRP | -0.175 |
| RRIRTRPPRLPRPRPRPQYIPRP | -0.331 |
| RRIRGRPPRLPRPRPRPPSSPRP | 0.703 |
| RRIRYRPPRLPRPRPRPNEKPRP | -0.0256 |
| RRIRYRPPRLPRPRPRPPSMPRP | -0.692 |
| RRIRHRPPRLPRPRPRPDENPRP | -0.225 |
| RRIRVRPPRLPRPRPRPVEVPRP | -0.0382 |
| RRIRLRPPRLPRPRPRPWSTPRP | -0.137 |
| RRIRDRPPRLPRPRPRPFAIPRP | -0.0496 |
| RRIRCRPPRLPRPRPRPNYEPRP | -0.442 |
| RRIRTRPPRLPRPRPRPSCVPRP | -0.185 |
| RRIRGRPPRLPRPRPRPICCPRP | 0.8 |
| RRIRDRPPRLPRPRPRPWMHPRP | 0.00346 |
| RRIRDRPPRLPRPRPRPQAEPRP | -0.129 |

| Sequence | shrunken log2 fold change |
| --- | --- |
| RRIRHRPPRLPRPRPRPNKDPRP | -0.507 |
| RRIRSRPPRLPRPRPRPAECPRP | 0.0306 |
| RRIRARPPRLPRPRPRPFYDPRP | 0.314 |
| RRIRARPPRLPRPRPRPAWYPRP | 0.0311 |
| RRIRHRPPRLPRPRPRPIKQPRP | -0.0565 |
| RRIRKRPPRLPRPRPRPYSSPRP | -0.239 |
| RRIRMRPPRLPRPRPRPCAIPRP | -0.216 |
| RRIRQRPPRLPRPRPRPERYPRP | -0.0565 |
| RRIRFRPPRLPRPRPRPWMYPRP | -0.673 |
| RRIRMRPPRLPRPRPRPFPGPRP | -0.0808 |
| RRIRFRPPRLPRPRPRPWVSPRP | -0.272 |
| RRIRQRPPRLPRPRPRPPSFPRP | 0.0399 |
| RRIRERPPRLPRPRPRPPQNPRP | 0.232 |
| RRIRGRPPRLPRPRPRPYLMPRP | -0.0538 |
| RRIRFRPPRLPRPRPRPNKQPRP | 0.0839 |
| RRIRSRPPRLPRPRPRPEWDPRP | 0.365 |
| RRIRARPPRLPRPRPRPKGWPRP | 0.862 |
| RRIRSRPPRLPRPRPRPIQFPRP | -0.396 |
| RRIRSRPPRLPRPRPRPDPDPRP | -0.0414 |
| RRIRTRPPRLPRPRPRPANKPRP | -0.216 |
| RRIRPRPPRLPRPRPRPTNHPRP | -0.134 |
| RRIRNRPPRLPRPRPRPEWVPRP | 0.0314 |
| RRIRKRPPRLPRPRPRPGTLPRP | 0.0624 |
| RRIRWRPPRLPRPRPRPGYEPRP | 0.00228 |
| RRIRRRPPRLPRPRPRPSNEPRP | -0.105 |

| Sequence | shrunken log2 fold change |
| --- | --- |
| RRIRQRPPRLPRPRPRPERTPRP | 0.124 |
| RRIRCRPPRLPRPRPRPFWIPRP | -0.513 |
| RRIRWRPPRLPRPRPRPGNTPRP | -0.348 |
| RRIRYRPPRLPRPRPRPYQGPRP | 0.00408 |
| RRIRMRPPRLPRPRPRPTIWPRP | 0.52 |
| RRIRLRPPRLPRPRPRPLTNPRP | -0.325 |
| RRIRARPPRLPRPRPRPWVSPRP | -0.0266 |
| RRIRLRPPRLPRPRPRPPFNPRP | -0.116 |
| RRIRSRPPRLPRPRPRPKYGPRP | -0.884 |
| RRIRIRPPRLPRPRPRPIVIPRP | -0.103 |
| RRIRARPPRLPRPRPRPKCVPRP | 0.463 |
| RRIRDRPPRLPRPRPRPTGNPRP | 0.195 |
| RRIRQRPPRLPRPRPRPMTNPRP | -0.0671 |
| RRIRTRPPRLPRPRPRPYGPPRP | -0.406 |
| RRIRERPPRLPRPRPRPRATPRP | 0.278 |
| RRIRRRPPRLPRPRPRPYSLPRP | -0.0861 |
| RRIRFRPPRLPRPRPRPIACPRP | -0.0937 |
| RRIRQRPPRLPRPRPRPHMVPRP | -0.0317 |
| RRIRGRPPRLPRPRPRPEKWPRP | -0.0809 |
| RRIRERPPRLPRPRPRPQTMPRP | -0.157 |
| RRIRMRPPRLPRPRPRPGLTPRP | 1.02 |
| RRIRFRPPRLPRPRPRPKHYPRP | -0.271 |
| RRIRSRPPRLPRPRPRPEVTPRP | 0.501 |
| RRIRWRPPRLPRPRPRPAWYPRP | 0.0415 |
| RRIRIRPPRLPRPRPRPGEIPRP | -0.123 |
